Drawing on patent US20110112279A1, this text covers geometric mean value of the signal intensity for one substance.

This test addresses receptor for STOP-1 on the cell surface (unidentified; HeLa, HT1080, HUVEC and MDA-MB-435 cells) (human). The test can be described thus: flow cytometry on MDA-MB-435 cells, flag-tagged STOP-1 alone, anti-flag M2-FITC detection; detection antibody alone gave approximately 7.99. In general terms: In flow cytometry, cells or beads pass a laser one at a time.

Turning to “flag-tagged full length human STOP-1 (from UniProt Q96CG8 31-243) (ligand)”, the geometric mean value of the signal intensity is 13.2.
